Reference: publication doi:10.1101/2025.10.29.685385

Key:
[1] = target: ALX4 homeodomain (amino acids 209-274) (human) (UniProt Q9H161); assay: native gel or EMSA; quantitative EMSA, purified HD protein with 34 nM fluorescent P4 probe (a single G added to the spacer of the P3 probe); same buffer; Tau = 4[P2D][D]/[PD]^2 (monomer on DNA to dimer on DNA)
[2] = target: PHOX2B Q46R homeodomain (human); assay: native gel or EMSA; quantitative EMSA, purified HD protein with 34 nM fluorescent Q50 P3 probe (TAAT-TAG-ATTA); 20 min at room temperature, 10 mM Tris pH 7.5, 50 mM NaCl, 1 mM MgCl2, 4% glycerol, 0.5 mM DTT, 0.5 mM EDTA, poly(dI-dC), BSA; Tau = 4[P2D][D]/[PD]^2, the factor by which the first HD on the DNA helps the second to bind (monomer on DNA to dimer on DNA)
[3] = target: OTP homeodomain (amino acids 99-164) (human) (UniProt Q5XKR4); assay: native gel or EMSA; quantitative EMSA, purified HD protein with 34 nM fluorescent P4 probe (a single G added to the spacer of the P3 probe); same buffer; Tau = 4[P2D][D]/[PD]^2 (monomer on DNA to dimer on DNA)
[4] = target: PHOX2B Q46K homeodomain (human); assay: native gel or EMSA; quantitative EMSA, purified HD protein with 34 nM fluorescent Q50 P3 probe (TAAT-TAG-ATTA); 20 min at room temperature, 10 mM Tris pH 7.5, 50 mM NaCl, 1 mM MgCl2, 4% glycerol, 0.5 mM DTT, 0.5 mM EDTA, poly(dI-dC), BSA; Tau = 4[P2D][D]/[PD]^2, the factor by which the first HD on the DNA helps the second to bind (monomer on DNA to dimer on DNA)
[5] = target: PITX3 homeodomain (human); assay: native gel or EMSA; quantitative EMSA, purified HD protein with 34 nM fluorescent K50 P3 probe (TAAT-CCG-ATTA); 20 min at room temperature, 10 mM Tris pH 7.5, 50 mM NaCl, 1 mM MgCl2, 4% glycerol, 0.5 mM DTT, 0.5 mM EDTA, poly(dI-dC), BSA; Tau = 4[P2D][D]/[PD]^2 (monomer on DNA to dimer on DNA)

Substance: ALX4 homeodomain (amino acids 209-274) (from UniProt Q9H161 209-274) (domain or fragment)
- Tau (cooperativity factor) with P4 DNA [1]: 0.792

Substance: PHOX2B Q46R homeodomain (domain or fragment)
- Tau (cooperativity factor) with P3 DNA [2]: 1.27

Substance: OTP homeodomain (amino acids 99-164) (from UniProt Q5XKR4 99-164) (domain or fragment)
- Tau (cooperativity factor) with P4 DNA [3]: 0.29

Substance: PHOX2B Q46K homeodomain (domain or fragment)
- Tau (cooperativity factor) with P3 DNA [4]: 1.4

Substance: PITX3 homeodomain (domain or fragment)
- Tau (cooperativity factor) with P3 DNA [5]: 0.157
